Positions count from the first letter of the chain named.
B1: H1-GD variant 6K1 (domain or fragment, human)
chain: DHPKYSDMIVAAIQAEKNRAGSSRQSIQQYIKSHYKVGENADSQIKLSIQRLVTTGVLQQTQGVGASGSFRLAK
notes: net charge +5; source: produced as previously described [16,34,52,78]
B2: H1-GD variant 6K2 (domain or fragment, human)
chain: B1 chain with K17Q, Q29K, Q59K, K74Q
notes: as for B1
B3: RST domain of the plant protein RCD1 (domain or fragment)
chain: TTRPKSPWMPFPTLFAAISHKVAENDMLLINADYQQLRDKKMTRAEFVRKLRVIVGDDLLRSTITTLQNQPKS
notes: folded RST domain of the plant protein RCD1, net charge +5; also called RCD1-RST; source: produced as previously described [16,34,52,78]
B4: prothymosin α (ProTα), isoform 2 (natural protein, UniProt P06454-2 1-110, looked up)
chain: MSDAAVDTSSEITTKDLKEKKEVVEEAENGRDAPANGNANEENGEQEADNEVDEEEEEGGEEEEEEEEGDGEEEDGDEDEEAESATGKRAAEDDEDDDVDTKKQKTDEDD
notes: prothymosin α, isoform 2, used for NMR (unlabelled, 15N- or 13C,15N-labelled); BMRB 27215 holds its assignments; Isotope-labelled and unlabelled forms are treated as one molecule; also called 15N-ProTα; source: produced as previously described [16,34,52,78]

What was measured:
Conditions in all cases: both partners purified
[1] = molecular target: B4; assay: NMR titration; 1H-15N HSQC of 15N-ProTα (50 μM) with 4x molar ratio of GD-WT or a GD variant; sum of CSPs normalised to that with GD-WT at the same ratio and batch; 283 K, TBSK buffer, pH 7.4
[2] = molecular target: B4; assay: NMR titration; 1H-15N HSQC of 15N-ProTα (28 μM) with GD up to 8x molar ratio, or 8x RST or CaM; 15N-ProTα (37 μM) with 2x full-length H1; 283 K, TBSK buffer (10 mM Tris, 155 mM KCl, 0.1 mM EDTA), pH 7.4
[3] = molecular target: T1, wild-type human histone H1.0, full length (produced recombinantly, for NMR) (human, UniProt P07305 1-194); assay: as above
T1 construct: human linker histone H1.0, wild type, full length; also called full-length H1; linker histone H1.0; source: produced recombinantly [16]
T1 sequence (P07305 whole entry): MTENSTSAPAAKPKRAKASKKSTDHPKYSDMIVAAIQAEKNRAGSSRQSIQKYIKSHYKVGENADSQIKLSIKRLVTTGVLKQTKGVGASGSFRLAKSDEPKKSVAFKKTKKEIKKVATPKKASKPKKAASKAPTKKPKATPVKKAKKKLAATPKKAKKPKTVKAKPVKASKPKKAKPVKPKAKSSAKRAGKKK

Binder | Relative CSPsum [1] | other results
B1 | 0.11 | –
B2 | 0.13 | –
B3 | – | binding result [2]: binds
B4 | – | binding result [3]: binds

From article PMC11971343, “Role of charges in a dynamic disordered complex between an IDP and a folded domain” (Nature Communications, 2025)
